# Results published in the DeepSol protein solubility set.
# Assay: soluble on expression in E. coli; label from the status in PepcDB or PDB records
row,Sequence,soluble on expression in E. coli
1,MGSDKIHHHHHHMLGKTAGGLYWLFRYLERSENTARLIETGFRIALTRPDGSDDEWRSVLQTAAVRDLYEGLYGEVEQAKAIDFLLRDRANPSSILSSISEARQNARLTRTALTREVWEAINDAYMNLKELLAHPVSAKTLPGTLATIRQHSALVRGAMHGTMLRTDIFDFCRLGTFIERADNTARILDVKYYVLLPSMTQVGSDLDNVQWETILRAVASHRSYRWLMGGETTPKGIADFLVFDTRMPRSLRFTVKKMASNLEYLAENYGQRHACHDQMDVLLARLKHGTIDEVFDDGLHEFLTEFLLDIGALGAQIESDYRFLG,not soluble
2,SEETYTDSLDPEKLLQCPYDKNHQIRACRFPYHLIKCRKNHPDVASKLATCPFNARHQVPRAEISHHISSCDDRSCIEQDVVNQTRSLRQETLAESTWQCPPCDEDWDKDLWEQTSTPFAWGTTHYSDNNSPASNIVTEHKNNLASGMRVPKSLPYVLPWKNNGNAQ,soluble
3,MESVKCFDMITAFFDLSDSVHVVRKNGGLAFGKTWLGNFFVLVREVKILRATTEKFSLVNLRKLEPHSGQFRNQIREESAYRHPFLRIVVKVILAKRLRPLPYLTSKSK,not soluble
4,MTDLNKHIKQAQTQRKQLLEESRELHREKLLVQAENRFFLEYLTNKTEEYTEQPEKVWNSYLQKSGEIERRRQESASRYAEQISVLKTALLQKENIQSSLKRKLQAMRDIAILKEKQEKEIQTLQEETKKVQAETASKTREVQAQLLQEKRLLEKQLSEPDRRLLGKRKRRELNMKAQALKLAAKRFIFEYSCGINRENQQFKKELLQLIEQAQKLTATQSHLENRKQQLQQEQWYLESLIQARQRLQGSHNQCLNRQDVPKTTPSLPQGTKSRINPK,not soluble
5,MTIIAGTVVKGKQLGRKLGFPTANVDAKIHGLRNGVYGVLATVNHQFHLGVMNIGVKPTVGSNLEKTLEIFLFDFHRDIYGEKIECSILFKIREERRFDSLESLTKQIKKDISCVAKRFELIGIMAPNKKESLLSHQELNLPDLCFYKKCNNLYGVNRGVYNVIDNWFFEYGITQVAYRRIYILSFLSFLKEDNPKVSSKYIRFGAGGLADKLNRFISSYVEESEENILGLEHHHHHH,soluble
6,MGSDKIHHHHHHMFEIKVSQEIKNACPVFAGAAVYAAVKNTAYCDGLWKEINTFTEDLTTTTQMADIKLQPVIAATREAYKRCGKDPGRYRPSAEALRRRLMRGIPLYQIDTLVDLINLVSLRTGHSIGGFDADKIQGNHLELGIGKAEEPFEGIGRGILNIEGLPVYRDSFGGIGTPTSDHERTKMDIGTTHILAIVNGYNGKEGLKEAAEMIQSLLKDYAGSDGGELIYFE,not soluble
7,MKKPTSAPRSKAFGKQRRKTREELNQEARDRKRLKKHRGHAPGSRAAGGNSASGGGNQNQQKDPRIGSKTPVPLGVTEKVTQQHKPKSEKPMLSPQAELDLLETDERLDALLERLEAGETLSAEDQAWVDAKLDRIDELMQKLGLSYDDDEEDDEEDEKQEDMMRLLRGGN,not soluble
8,SSSISELYDVTWEEMRDKLRKWREENYRNSEQIVDVGEELINEHASKLGDDIWIIYEQVMIAALDCSRDDLAWSCLQELKRQFPDSHRVKRLAGMRLEALERYDDANKLYDSILQDDPTNTAARKRKICILRAQGKSSEAIRELNEYLEQFVGDQEAWHELSELYINEHDYAKAAFCLEELMMTNPHNHLYCEQYAEVKYTQGGLENLELARKYFAQALKLNNRNMRALFGLYMSASHIAASPKVSAKVKKDNVKYAAWAAAQISRAYQMAGRGKKENKCSVKAVEEMLESLQITMS,soluble
9,MAYVTLYPNLILEALGKVRYPGTGKDLVSAGMVEDDIRIDGNKVSFSLIFDKANDPFIKSVVKAAESAILTYISEDVNIKGNISVKSKQAIPAPPAKLLPGVKNIIAVFSGKGGVGKSTVTANLAVSLAKSGYRVGLLDADIFGPSMPKMFHCEESRPVLEEVDGRELIVPEEVMGVKILSIGFFVDPDNAVLWRGSMAGNALTQLIRDANWGELDYFLIDMPPGTSDIHLTLVQTLAITGAVVVTTPQDVALADARKGISMFVGEKINVPVLGLVENMSWFTPAELPQNKYYIFGRDGGKNLAEELNIPLLGQIPLVQGICQSGDEGIPVAVRDDSMMGIAFRELAARVVEQVDYRNEHLDPTKVVEVAHR,not soluble
10,MSLKVGFDNQKYLKMQSEHIRERISKFDNKLYLEFGGKLFDDYHASRVLPGFEPDSKLKMLLELKDQAEIVIVISAIDIEKSKVRGDLGITYDSDVLRLIDAFQSKGLYVGSVTITQYSGQSSADLFKSKLEALGVKVYLHYIIPGYPNNISLILSEDGYGKNEFIQTTRPLVVITAPGPGSGKMATCLSQLYHEHKRGVRAGYAKFETFPIWNLSLKHPVNVAYEAATADLNDVNMIDPCHLEAYGVTAVNYNRDVEIFPVLKAIFLRIDEHCPYKSPTDMGVNMVGNCIIDDQACRDASKQEILRRYYQTLCNVINGTSDGDEVYKLELLLNQVSVSAEDRPVIKAANDLADLNKSPAVAMQLADESIITGKTSELLGASAAVLLNALKALAGIPHETHVISPLAIGPIQQLKTQYLGSSNPRLHTDEVLIALSISAKEDENARKAMEQLPHLKGCEVHTSVILSEVDRKVFHKLGVHLTSEPTYENKKLFHEGHHHHHH,soluble
11,MVKSMIAVISDIHSNLEALNAVLNDIKNRGIKKIFCLGDIVGYGANPNECVELIRDLNCLSVVGNHDYGVLGKESLDYFNKYGAIAILWTKKVIKNENLKFLDSLPLIIEENIKGKKVIFSHANPKHPEIWEYLFPDYVDDVFNYGDLIFVGHSHIPFVNSEEGNLLLHEGKIYLDEDKKYLINPGSVGQPRDGINKASYCIFDEKDFKIEIVRVEYDIKKAYEKIVKNRLPEWLGERLFLGR,soluble
12,MGSDKIHHHHHHMSQRENPQNSSQDVADLLGGAFAGHTMQRLRTPDGKYRYSYVSSGVQASFGLDPEALMQLQDVDHSWLHPADRSLFIAALEQSAAALTRLDEEVRVSLDDGTFKWVRSIGNPRRMRDGTVIWDGVALDVTDRHEASEALERTLTQVRQNETSEGRFSYIAASDVLDRLSSLRAAVEQLDLSVPTAAHVHAVFQKFERGLFAARDLLDDTALDETRPTDHEPHKDISATLTPRQQDILGHVSRGATNRDIARAMDISEGTVKLHISAILKRTGAQNRTEAALAWTSSNGTPRR,not soluble
13,MGSDKIHHHHHHMKPEAYPHPVKVVELVETHISWVLLTGSYAYKLKKAVHLDFVDATTLKQRLHFCQEELRLNRRLAPDLYLGVTRILESVDGAKVLDENFELNDPSTKGVVDVAVKMRQFPVSRLLSVYLSDGVLKTESLKRLAFELAGFHLSVKTASADGDFGGFDAVINPVHANLRVLDQLTLTEPLELWLEEHRAWIKSIQPELAFRFKQRLNAGAIRECHGDLHVGNIHLNNDESLEVFDAIDFNPSLRWIDPISEMAFLVMDFEVHDHQGDAMVILNEWLEHTGDYKALDLWPWYSAYRALVRAKVSGLQWQQLCSQSQHHSVDQQHLQRLLKDLNLYIQRAREVQQTKSAGIVLMHGLSGSGKSFLSEQLYQQLPAVRLRSDIERQRAFGRRPLHKLLGFEKGSMTSVGIKPLFQGDPYRPEVTQWLFDQCLPALTQSCLSSGYTTIVDATFLRERERQRMFVLARQQGCPIAIVACECSDFTAQERIATRMGIGTDPSEADLSVRELQKAWIEPLTTDEQDLTVRFTEKTPISIGLERLRVLLNP,not soluble
14,HMPSVIVVGGQWGDEGKGSIVAYLSLHDEPEIIARGGVGTNAGHSVVINGKKYAVRQIPTGFMQTKARLLIGAGVLVDPEVFFHELEQLKDFNVKDRVGIDYRCAIIEEKHKQLDRTNGYLHGKIGTTGSGCGPANADRVMRKAKQAKDVKELEPYLTDVAQEINDALDEGSLVLVEGTQGFGLSLYYGTYPYVTSKDVTASSVAADVGIGPTRVDEVIVVFKSFPTRVGAGPFPTEMPMEEADRLGLVEYGTVTGRRRRVGWFDFEMARYSARINGATMLAVTMLDKYDKEAFGVTDYDKLPRKAKEFIEEIEERVGVPVGLIKTGPELEHIIDRRDTI,soluble
15,SPSETLWEIAKAEVEKRRSHGSEGDGAEIGEKSVFFIGSKNGGKTTIILRCLDRDESAKPTLALEYTYGRKTKGHNTPKDIAHFWELGGGTSLLDLISIPITVDTLRTFSIVLVLDLSKPNDLWSTMENLLQATKSHVDKVIMKLGKTSSKASAEMRQRMWSVVQKDHPDRELIDPFPIPLVIIGSKYDIFQDFDPEKRKVICKTLRFVAHYYGASLMFTSKSEALLLKIRGVINQLAFGIDKSKSICVDQNKPLFITAGLDSLCQIGSPPVPDSDIGKLQAHSPMELWKKVYDKLFPPKSTGTLKAVQDPARDPQYAESEVDEMRVQKDQELEHYKRSSSKTWKQIELDS,soluble
16,DSGYSRETRALLFRAYRHDPTFAYLFNAEREGYEQRVLATIRQLVKQHFLQNQPALGLFLEDRLVGVALIAPPLRRLGVTESWAWRLRMVMDTGLGCTQRYLAYYNAVLACLPSETVHVLPLIGLDPEFQGQKMGQDLSEQLLAALHDWCAVDENSQGIVVDTGNPRYLEFYKRQGYEEIGEIAVGPV,not soluble
17,MRLPILLLSILGLSLGFGHDSPSSPAANQYATELADRFFTKFIKAVKYSDVRVMDSLLLSSNENLSSKNMIREFYKYPNTKIHDARFVGRNIATTVFFPLSPHGYDIPFKSADFILKKRFMGDWAITSMENLKYNSGKG,not soluble
18,MKALHFGAGNIGRGFIGKLLADAGIELTFADVNQTVLDALNARHSYQVHVVGENEQVDTVSGVNAVSSIGDEVVDLIAEVDLVTTAVGPVVLERIAPAIAKGLAQRKAQGTERPLNIIACENMVRGTTQLKGHVFNALAEEHKAWVEAHIGFVDSAVDRIVPPSASATHDPLEVTVETFSEWIVDKTQFKGALPTIPGMELTDNLMAFVERKLFTLNTGHAITAYLGKLAGHQTIRDAILDEKIRAVVQGAMEESGAVLIKRYAFDPQKHAAYIQKILGRFENPYLKDDVERVGRQPLRKLSAGDRLIKPLLGTLEYGLPHRNLVKGIAAAMHFRSEDDPQAQELAALIADKGPQAALAQISGLDAASDVVAEAVNDYNAEK,not soluble
19,MLGGNNDNPVPQVLMNDSQFRYQSNTSLNQLHLLGTMRAGCTIDPVNYFANDNLAPMMRLNSTRGRETENNNIMQRQQKLQISLNYNYNNNNTVVQDEVPKQNLVSTGLRLSYDDDERNSSVTSANGSITTPVYQSLGDNIRLDLNRQNDELDQFIKFRADQMAKGVRDIKQRHVTSFVTALEKDVSKKLQEKDHEIESMNKKNRELVDKIKQVAVEAQNWHYKAKYNESVVNALKVNLQQVMSHGNDNNAVGGGVADHHQMKEGFGDSEIDDEAASYNYLNIPGMPSTGMRCKLCNVKNVSVLLVPCRHLSLCKDCDVFTGVCPVCQSLKTSSVQVFFF,soluble
20,MGSDKIHHHHHHMTSYVLTVSCPSKRGIVAALSGYLAEMGCNIVDSSQFDDLDTDRFFMRVSFISEQGASREKIEAGLAPIVDNFQMEIGLYDSTERVKVLLMVSRFGHCLNDLLYRWKIGALPIDIVGVVSNHFDYQKVVVNHDIPFHHIKVTKDNKPQAEAQLMELVQQTGTELIVLARYMQVLSDAMCQKMSGKIINIHHSFLPSFKGANPYKQAFERGVKLIGATAHYVTADLDEGPIIEQDVARVTHAQNAEDYVSIGRDVESQVLARAIHAHIHHRTFINGNKSVVFPASPGSYASERMG,not soluble
21,MGMYFVGIDGGGTSCRARIKDSQGNFLGEAKSGSANIMLGAEIAMASILESITSAAEQGGLTQQDFASMHVGLALAGAEHKASWQAFMSLPHPFASMTLNTDAYGACVGAHNGEDGAIMIAGTGSCGIYLKGLEQHVVGGREFPISDQGGGAVMGLRLVQQVLLAEDGIREKTPLAQHVMAYFENDVDNVVAWSKQALPRDYGQFSPAIFQHAEQGDALAIEMLKQTAADIEMFLVALNKRGATRICLMGSIAERILRWLSPPVQQWVVEPQFDAIEGAIMFAGKPEHNLYSLSAALEHHHHHH,not soluble
